T1: FcγRIIb extracellular domain with C-terminal His tag (human, UniProt P31994 43-217)
T1 construct: extracellular domain; expressed in FreeStyle293 cells; analyte in Biacore; also called FcgRIIb; 2b
T1 sequence (looked up): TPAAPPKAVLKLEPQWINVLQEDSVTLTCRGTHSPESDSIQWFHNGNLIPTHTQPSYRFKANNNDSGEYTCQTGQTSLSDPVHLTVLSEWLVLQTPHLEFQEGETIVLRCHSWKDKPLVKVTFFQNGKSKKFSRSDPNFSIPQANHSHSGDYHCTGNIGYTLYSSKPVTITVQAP

B1: GpH7-A5/GpH7-B3 variant S298_03V/GpL16-k0 (antibody, human IgG1, kappa)
heavy 1: not shown
heavy 2: not shown
light: DIVMTQSPLSLPVTPGEPASISCQASESLVHSNRNTYLHWYLQKPGQSPQLLIYKVSNRFSGVPDRFSGSGSGTDFTLKISRVEAEDVGVYYCSQNTHVPPTFGQGTKVEIERTVAAPSVFIFPPSDEQLKSGTASVVCLLNNFYPREAKVQWKVDNALQSGNSQESVTEQDSKDSTYSLSSTLTLSKADYEKHKVYACEVTHQGLSSPVTKSFNRGEC
notes: He Ab; IgG1, mutation in one H chain
B2: GpH7-A5/GpH7-B3 variant S298_01G/GpL16-k0 (antibody, human IgG1, kappa)
heavy 1: not shown
heavy 2: not shown
light: B1 light
notes: as for B1
B3: GpH7-A5/GpH7-B3 variant Q295_16H/GpL16-k0 (antibody, human IgG1, kappa)
heavy 1: not shown
heavy 2: not shown
light: B1 light
notes: as for B1
B4: GpH7-A5/GpH7-B3 variant Q295_09D/GpL16-k0 (antibody, human IgG1, kappa)
heavy 1: not shown
heavy 2: not shown
light: B1 light
notes: as for B1
B5: GpH7-A5/GpH7-B3 variant Y296_03V/GpL16-k0 (antibody, human IgG1, kappa)
heavy 1: not shown
heavy 2: not shown
light: B1 light
notes: as for B1
B6: GpH7-A5/GpH7-B3 variant S298_20W/GpL16-k0 (antibody, human IgG1, kappa)
heavy 1: not shown
heavy 2: not shown
light: B1 light
notes: as for B1
B7: GpH7-A5/GpH7-B3 variant Q295_14T/GpL16-k0 (antibody, human IgG1, kappa)
heavy 1: not shown
heavy 2: not shown
light: B1 light
notes: as for B1
B8: GpH7-A5/GpH7-B3 variant S324_07I/GpL16-k0 (antibody, human IgG1, kappa)
heavy 1: not shown
heavy 2: not shown
light: B1 light
notes: as for B1
B9: GpH7-A5/GpH7-B3 variant S298_02A/GpL16-k0 (antibody, human IgG1, kappa)
heavy 1: not shown
heavy 2: not shown
light: B1 light
notes: as for B1
B10: GpH7-A5/GpH7-B3 variant S298_18N/GpL16-k0 (antibody, human IgG1, kappa)
heavy 1: not shown
heavy 2: not shown
light: B1 light
notes: as for B1
B11: GpH7-A5/GpH7-B3 variant S298_11K/GpL16-k0 (antibody, human IgG1, kappa)
heavy 1: not shown
heavy 2: not shown
light: B1 light
notes: as for B1
B12: GpH7-A5/GpH7-B3 variant Q295_12R/GpL16-k0 (antibody, human IgG1, kappa)
heavy 1: not shown
heavy 2: not shown
light: B1 light
notes: as for B1
B13: GpH7-A5/GpH7-B3 variant S298_19Q/GpL16-k0 (antibody, human IgG1, kappa)
heavy 1: not shown
heavy 2: not shown
light: B1 light
notes: as for B1
B14: GpH7-A5/GpH7-B3 variant Q295_13S/GpL16-k0 (antibody, human IgG1, kappa)
heavy 1: not shown
heavy 2: not shown
light: B1 light
notes: as for B1
B15: GpH7-A5/GpH7-B3 variant S298_16H/GpL16-k0 (antibody, human IgG1, kappa)
heavy 1: not shown
heavy 2: not shown
light: B1 light
notes: as for B1
B16: GpH7-A5/GpH7-B3 variant Q295_11K/GpL16-k0 (antibody, human IgG1, kappa)
heavy 1: not shown
heavy 2: not shown
light: B1 light
notes: also called He Ab Q295_11K
B17: GpH7-A5/GpH7-B3 variant Y296_11K/GpL16-k0 (antibody, human IgG1, kappa)
heavy 1: not shown
heavy 2: not shown
light: B1 light
notes: as for B1
B18: GpH7-A5/GpH7-B3 variant Y296_07I/GpL16-k0 (antibody, human IgG1, kappa)
heavy 1: not shown
heavy 2: not shown
light: B1 light
notes: as for B1
B19: GpH7-A5/GpH7-B3 variant S298_14T/GpL16-k0 (antibody, human IgG1, kappa)
heavy 1: not shown
heavy 2: not shown
light: B1 light
notes: as for B1
B20: GpH7-A5/GpH7-B3 variant Y296_08L/GpL16-k0 (antibody, human IgG1, kappa)
heavy 1: not shown
heavy 2: not shown
light: B1 light
notes: as for B1
B21: GpH7-A5/GpH7-B3 variant Q295_10E/GpL16-k0 (antibody, human IgG1, kappa)
heavy 1: not shown
heavy 2: not shown
light: B1 light
notes: as for B1
B22: GpH7-A5/GpH7-B3 variant Y296_09D/GpL16-k0 (antibody, human IgG1, kappa)
heavy 1: not shown
heavy 2: not shown
light: B1 light
notes: as for B1
B23: GpH7-A5/GpH7-B3 variant P271_16H/GpL16-k0 (antibody, human IgG1, kappa)
heavy 1: not shown
heavy 2: not shown
light: B1 light
notes: also called He Ab P271_16H
B24: GpH7-A5/GpH7-B3 variant S298_09D/GpL16-k0 (antibody, human IgG1, kappa)
heavy 1: not shown
heavy 2: not shown
light: B1 light
notes: as for B1
B25: GpH7-A5/GpH7-B3 variant Y296_10E/GpL16-k0 (antibody, human IgG1, kappa)
heavy 1: not shown
heavy 2: not shown
light: B1 light
notes: as for B1

Tests used:
[1] = molecular target: T2, FcγRIa extracellular domain with C-terminal His tag (human, UniProt P12314 16-292); experiment: SPR (Biacore), captured antibody, FcγR as analyte; relative binding
T2 construct: extracellular domain; expressed in FreeStyle293 cells; analyte in Biacore; also called FcgRI; 1a

[2] = molecular target: T1, FcγRIIb extracellular domain with …; experiment: as above
FcγRIa = molecular target: T3, FcγRIa (human, UniProt P12314 16-292); experiment: SPR (Biacore); He Ab relative to HeCon Ab = 100
T3 construct: extracellular domain; also called FcgRI; 1a
Summary of the method: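 Antibodies captured on antigen-peptide chips (CM5 amine-coupled or SA with biotinylated peptide), then each FcγR analyte, diluted in HBS-EP+, was injected at 25° C on Biacore T100. Surfaces regenerated with 10 mM glycine-HCl pH 1.5; binding expressed relative to the reference antibody.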

T2 sequence (P12314 16-292): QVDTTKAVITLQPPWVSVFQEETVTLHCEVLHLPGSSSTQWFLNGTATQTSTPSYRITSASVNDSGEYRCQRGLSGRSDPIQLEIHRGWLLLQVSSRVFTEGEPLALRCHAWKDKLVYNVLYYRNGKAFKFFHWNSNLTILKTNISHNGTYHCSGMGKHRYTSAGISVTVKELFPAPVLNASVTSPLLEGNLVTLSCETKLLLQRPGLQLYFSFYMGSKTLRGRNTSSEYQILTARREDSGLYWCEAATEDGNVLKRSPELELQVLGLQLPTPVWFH
T3 sequence (P12314 16-292): as above

Binder	He/Con_1a [1]	He/Con_2b [2]	He/Con_1a (FcγRIa)
B1	110 % of HeCon Ab (GpH7-A5/GpH7-B3/GpL16-k0 = 100)	64.5 % of HeCon Ab (GpH7-A5/GpH7-B3/GpL16-k0 = 100)	–
B2	104 % of HeCon Ab (GpH7-A5/GpH7-B3/GpL16-k0 = 100)	80.1 % of HeCon Ab (GpH7-A5/GpH7-B3/GpL16-k0 = 100)	–
B3	102 % of HeCon Ab (GpH7-A5/GpH7-B3/GpL16-k0 = 100)	62.7 % of HeCon Ab (GpH7-A5/GpH7-B3/GpL16-k0 = 100)	–
B4	100 % of HeCon Ab (GpH7-A5/GpH7-B3/GpL16-k0 = 100)	60.8 % of HeCon Ab (GpH7-A5/GpH7-B3/GpL16-k0 = 100)	–
B5	104 % of HeCon Ab (GpH7-A5/GpH7-B3/GpL16-k0 = 100)	79.3 % of HeCon Ab (GpH7-A5/GpH7-B3/GpL16-k0 = 100)	–
B6	104 % of HeCon Ab (GpH7-A5/GpH7-B3/GpL16-k0 = 100)	41.1 % of HeCon Ab (GpH7-A5/GpH7-B3/GpL16-k0 = 100)	–
B7	103 % of HeCon Ab (GpH7-A5/GpH7-B3/GpL16-k0 = 100)	66.8 % of HeCon Ab (GpH7-A5/GpH7-B3/GpL16-k0 = 100)	–
B8	102 % of HeCon Ab (GpH7-A5/GpH7-B3/GpL16-k0 = 100)	95.7 % of HeCon Ab (GpH7-A5/GpH7-B3/GpL16-k0 = 100)	–
B9	107 % of HeCon Ab (GpH7-A5/GpH7-B3/GpL16-k0 = 100)	73.4 % of HeCon Ab (GpH7-A5/GpH7-B3/GpL16-k0 = 100)	–
B10	108 % of HeCon Ab (GpH7-A5/GpH7-B3/GpL16-k0 = 100)	48.1 % of HeCon Ab (GpH7-A5/GpH7-B3/GpL16-k0 = 100)	–
B11	109 % of HeCon Ab (GpH7-A5/GpH7-B3/GpL16-k0 = 100)	61.3 % of HeCon Ab (GpH7-A5/GpH7-B3/GpL16-k0 = 100)	–
B12	100 % of HeCon Ab (GpH7-A5/GpH7-B3/GpL16-k0 = 100)	65.2 % of HeCon Ab (GpH7-A5/GpH7-B3/GpL16-k0 = 100)	–
B13	109 % of HeCon Ab (GpH7-A5/GpH7-B3/GpL16-k0 = 100)	73.3 % of HeCon Ab (GpH7-A5/GpH7-B3/GpL16-k0 = 100)	–
B14	102 % of HeCon Ab (GpH7-A5/GpH7-B3/GpL16-k0 = 100)	56.9 % of HeCon Ab (GpH7-A5/GpH7-B3/GpL16-k0 = 100)	–
B15	109 % of HeCon Ab (GpH7-A5/GpH7-B3/GpL16-k0 = 100)	63.5 % of HeCon Ab (GpH7-A5/GpH7-B3/GpL16-k0 = 100)	–
B16	–	–	101 % of control
B17	105 % of HeCon Ab (GpH7-A5/GpH7-B3/GpL16-k0 = 100)	72.8 % of HeCon Ab (GpH7-A5/GpH7-B3/GpL16-k0 = 100)	–
B18	104 % of HeCon Ab (GpH7-A5/GpH7-B3/GpL16-k0 = 100)	84.3 % of HeCon Ab (GpH7-A5/GpH7-B3/GpL16-k0 = 100)	–
B19	107 % of HeCon Ab (GpH7-A5/GpH7-B3/GpL16-k0 = 100)	77.9 % of HeCon Ab (GpH7-A5/GpH7-B3/GpL16-k0 = 100)	–
B20	104 % of HeCon Ab (GpH7-A5/GpH7-B3/GpL16-k0 = 100)	82.3 % of HeCon Ab (GpH7-A5/GpH7-B3/GpL16-k0 = 100)	–
B21	103 % of HeCon Ab (GpH7-A5/GpH7-B3/GpL16-k0 = 100)	94.8 % of HeCon Ab (GpH7-A5/GpH7-B3/GpL16-k0 = 100)	–
B22	106 % of HeCon Ab (GpH7-A5/GpH7-B3/GpL16-k0 = 100)	98.9 % of HeCon Ab (GpH7-A5/GpH7-B3/GpL16-k0 = 100)	–
B23	–	–	102 % of control
B24	106 % of HeCon Ab (GpH7-A5/GpH7-B3/GpL16-k0 = 100)	48.3 % of HeCon Ab (GpH7-A5/GpH7-B3/GpL16-k0 = 100)	–
B25	106 % of HeCon Ab (GpH7-A5/GpH7-B3/GpL16-k0 = 100)	98 % of HeCon Ab (GpH7-A5/GpH7-B3/GpL16-k0 = 100)	–
